This note sets out measurements from patent publication US20260275311, “CRISPR NUCLEASE POLYPEPTIDES AND GENE EDITING SYSTEMS COMPRISING SUCH” (ARBOR BIOTECHNOLOGIES, INC., published 2026).

Positions count from the first letter of the chain named.

Data set [1] deals with T1, Nuclease M N371R N371R.
T1 sequence: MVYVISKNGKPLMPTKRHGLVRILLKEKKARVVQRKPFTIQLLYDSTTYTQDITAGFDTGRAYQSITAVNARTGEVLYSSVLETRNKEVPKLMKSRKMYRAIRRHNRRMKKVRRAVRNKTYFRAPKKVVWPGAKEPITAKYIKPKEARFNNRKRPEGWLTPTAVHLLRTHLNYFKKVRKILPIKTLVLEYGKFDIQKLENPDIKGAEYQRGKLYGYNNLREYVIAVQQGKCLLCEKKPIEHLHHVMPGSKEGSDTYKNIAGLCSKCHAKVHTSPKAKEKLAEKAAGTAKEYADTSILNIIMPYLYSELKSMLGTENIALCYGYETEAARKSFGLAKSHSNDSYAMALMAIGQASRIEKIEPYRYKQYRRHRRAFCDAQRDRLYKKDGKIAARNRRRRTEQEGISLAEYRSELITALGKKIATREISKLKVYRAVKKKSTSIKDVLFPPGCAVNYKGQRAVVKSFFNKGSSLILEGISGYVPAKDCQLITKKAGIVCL
In words: cell_activity. The following applies: PAM TTAAA; HEK293T.

In data set [2] the test system is T2, Nuclease M A373R A373R.
T2 sequence: T1 sequence with R371N, A373R
Description: cell_activity. Particulars: PAM TTAAA; HEK293T.

As to “GAGCCUGGUCCAUGGAGAGUGUCAACUACCCCCGUCUAAAGACGGAGGCAUGAGGUUUCGUAACCAAGUGUUGUACCUGCGGGUACAGUAGUUGAACAGGCGGCGAUGCGGCUGGGCACUCCAGGAUGCCACUCCCAGUCCCGGACACUGCCGACGAGCCGCAUCAAGCCGGGGGAGACCAACCGGCUAACGAUAGCCGAGCAAUUACCUAAAAAGAGGUGCAAAGGAAAUGGUAU / GAGCCTGGTCCATGGAGAGT / ACTCTCCATGGACCAGGCTC [Nuclease M VEGFA-T5 guide ; Nuclease M VEGFA-T5 target]”, the results for the binding signal (fold vs Nuclease M) in data set [1] and in data set [2] were 1.65 and 1.53, respectively.
